B1: CG30491 (Drosophila melanogaster) (protein)
chain: MSLFAFLKSRTAFWLSFTGTTTGLAFFVKDLMQGGQFTKETNETGKVFIVTGANTGIGKETVREIAKRGGTVYMACRNLKKCEEAREEIVLETKNKYVYCRQCDLASQESIRHFVAAFKREQEHLHVLINNAGVMRCPRSLTSDGIELQLGVNHMGHFLLTNLLLDLLKKSSPSRIVNVSSLAHTRGEINTGDLNSDKSYDEGKAYSQSKLANVLFTRELAKRLEGTNVTANALHPGVVDTEIIRHMGFFNNFFAGLFVKPLFWPFVKTPRNGAQTSLYVALDPELEKVTGQYFSDCKLKEMAPAATDTQTAKWLWAVSEKWTKPTMIKIQ
B2: CG3842 (Drosophila melanogaster) (protein)
chain: MSEAATPPGSVPGTVFPPGFDPTAESVEKTLCFRGFWAWAVLIFLIVLGILLFMWLLRKCIQGPAYRKANRIDGKVVIVTGCNTGIGKETVLELAKRGARVYMACRDPGRCEAARLDIMDRSRNQQLFNRTLDLGSLQSVRNFVERFKAEESRLDILINNAGVMACPRTLTADGFEQQFGVNHLGHFLLTNLLLDRLKHSSPSRIVVVSSAAHLFGRINREDLMSEKNYSKFFGAYSQSKLANILFTLKLSTILKDTGVTVNCCHPGVVRTEINRHFSGPGWMKTALQKGSLYFFKTPKAGAQTQLRLALDPQLEGSTGGYYSDCMRWPLFPWVRNMQTADWLWRESEKLLGLPPLEPPPPVQSPTQNGNGTQNGNGSSSASASASSNNPASREMQSVETVVVNRS
B3: CG2065 (Drosophila melanogaster) (protein)
chain: MQGGQFTKQTDETGKVFIVTGANTGIGKETVLEIAKRGGTVYMACRDMNRCEKARQDIIRETNNQNIFSRELDLSSLESIRKFAAGFKKEQDKLHVLINNAGVMHCPRTLTKDGFEMQLGVNHMGHFLLTHLLLDVLKKTAPSRIVNVSSLVHTQGFIKTADLNSEKSYSRIGAYSQSKLANVLFTRELAKRLEGTGVTTNSLHPGAVDTELSRNWKFLKHPFAQLLLKPLLWVLFKTPRNGAQTTLYAALDPALKDVSGLYFSDCQPKEVSAAAQDDKTGKFLWAESEKWTGVNSTKVD
B4: CG2064 (Drosophila melanogaster) (protein)
chain: MCIFIDCLLSPLIMWPATIGVGIYFLKEYMQGGKFTKDTDETGKVFIVTGANTGIGKETALEIARRGGTVYLACRDMNRCEKARKDIIKETNNQNIFSRELDLSSLDSIRKFVDGFKKEQPKLHVLINNAGVMRCPKTLTKDGYELQLGVNHIGHFLLTNLLLDVLKNSAPSRIVVVSSLAHARGSINVADLNSEKSYDEGLAYSQSKLANVLFTRELAKRLEGSGVTVNALHPGVVDTELARNWAFFQTNLVKFFLKPMIWPLLKTPKSGAQTSIYAALDPELKNISGLYFSDCKPKPVASGALDDKVAKFLWAESEKWTGLDKLEANN
B5: CG2070 (Drosophila melanogaster) (protein)
chain: MSAPTDYLFCPLAYGSALSAIGIYLLRQYMQGGQFTTKTNETGRVAIVTGCNQGIGKETVLELARRGATVYMACRDMKKCENARREIIKATNNQNIFARQLDLCSMKSIRNFAAGFKREQNKLHILINNAGIMDCPKMLTEDGFEMQIGVNHMGHFLLTLLLLDVLKSSAPSRVVVLSSIAHRFGRIKRDDLNSEKSYDRKMAYCQSKLANVLFTRELAKRLSGTGVTVNALHPGVVNTELFRNTPFLGSWFGKLLIAPIIWIFIKTARNGAQTTLYAALDPSLEKVSGRYFSDCKQKHVGSAAQYDDDAQFLWAESEKWTGINI

Assays:
[1] = substrate: CC1=C(/C=C/C(C)=C/C=C/C(C)=C/C=O)C(C)(C)CC(O)C1; experiment: HPLC of 3-hydroxyretinol formed, microsomes of Sf9 cells; assay type: biochemical, Drosophila melanogaster; details: apparent; 1 mM NADPH; BSA-solubilized substrate; ambient temperature; reduction
[2] = substrate: CC1=C(/C=C/C(C)=C/C=C/C(C)=C/C=O)C(C)(C)CCC1; experiment: HPLC of retinol formed, microsomes of Sf9 cells; assay type: biochemical, Drosophila melanogaster; details: apparent; 1 mM NADPH; BSA-solubilized substrate; ambient temperature; reduction

| Protein | Km [1] [µM] | Vmax [1] [µmol/min/mg] | Km [2] [µM] | Vmax [2] [µmol/min/mg] |
| --- | --- | --- | --- | --- |
| B1 | 3.2 ± 0.3 | 0.029 | 0.6 ± 0.1 |  |
| B2 | 4.1 ± 0.1 | 0.025 | 0.27 ± 0.05 | 0.007 |
| B3 | 4.4 ± 0.6 | 0.001 | 0.7 ± 0.1 | 0.0016 |
| B4 | 2.7 ± 0.9 | 0.00045 | 4.2 ± 1.2 | 0.0016 |
| B5 |  |  | 0.4 ± 0.1 | 0.021 |
